Source: the supplement of paper PMC10724198
± gives the standard deviation of the averaged measurements.

Test system: Saccharomyces cerevisiae
Experiment: protein stability index of tFT-peptide fusion (C-terminal peptide) (PSI (0-1 scale)); higher = more stable (slower turnover)
Conditions: genetic background: wild type; temperature: 30 C
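Note: PSI is a weighted mean of sequencing reads over stability bins, variants kept only with over 10 reads, mCherry proximal and sfGFP distal, peptide attached via GGGS linker.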

Point of comparison: QPGDVWEFGVLL, protein stability index 0.73 ± 0.027. Against it:
- QMSHTGPTTIQS — within error, 0.695 ± 0.023
- QNERRLPVGSYA — within error, 0.696 ± 0.06
- QNGAEESVSVGT — within error, 0.662 ± 0.042
- QNIGPKEESVLA — within error, 0.682 ± 0.035
- QNLYLSFLRIKL — lower, 0.624 ± 0.0088
- QNQILNKKVIFK — within error, 0.681 ± 0.056
- QPGTPLSPPPSP — lower, 0.49 ± 0.019
- QPKEGGRPKKKE — within error, 0.675 ± 0.035
- QPRLPLPLSSPV — lower, 0.611 ± 0.071
- QPTRADLEAPPR — lower, 0.6858 ± 0.0065
- QQDHRSHAHRRL — within error, 0.7047 ± 0.0013
- QQPPSSGTPDNH — within error, 0.703 ± 0.027
- QRNPQNKDRVQD — lower, 0.663 ± 0.004
- QRRGAPTPPACL — within error, 0.748 ± 0.011
- QRVWGFRSVFVR — lower, 0.532 ± 0.035
- QRWKEGRGHSRQ — within error, 0.686 ± 0.017
- QSGLAGIPIPKN — within error, 0.681 ± 0.078
- QSKFNKFPIVET — lower, 0.656 ± 0.046
- QSPMTTGASERH — lower, 0.623 ± 0.066
- QSPSALAEGPDD — within error, 0.641 ± 0.099
- QSRAQTFGTSIS — lower, 0.668 ± 0.013
- QSYRGIGFRTTM — lower, 0.607 ± 0.049
- QTGPPDPPLSPP — lower, 0.643 ± 0.014
- QTHFRPDYALDW — within error, 0.753 ± 0.064
- QTTKEQQKKSYK — within error, 0.665 ± 0.053
- QVILQHSLGLLD — within error, 0.707 ± 0.014
- QYGARNHPPTTK — within error, 0.742 ± 0.063
- QYKRFYGSLVNG — lower, 0.608 ± 0.047
- QYLKTKKEGKEF — within error, 0.698 ± 0.024
- RAAFNPCYTIDF — within error, 0.729 ± 0.025
- RAARGGRSGTRV — within error, 0.643 ± 0.097
- RAARVSVVAYPF — lower, 0.682 ± 0.0094
- RAAVTDPCNPLL — lower, 0.693 ± 0.0094
- RACDQPSGVCNV — within error, 0.669 ± 0.038
- RACGVSMRIKGG — within error, 0.695 ± 0.033
- RACLDRNNLDLG — lower, 0.605 ± 0.075
- RADQGGVVNGEG — within error, 0.732 ± 0.055
- RAIGREGILHRA — within error, 0.693 ± 0.094
- RAKRMVGQTIQE — within error, 0.765 ± 0.18
- RALCGWFAKRMI — lower, 0.637 ± 0.035
- RALCISCYVALR — lower, 0.5849 ± 0.00077
- RAPSTPSGRPSL — lower, 0.65 ± 0.051
- RARAIGVGSGRG — within error, 0.698 ± 0.023
- RARCPGGQIKLH — within error, 0.714 ± 0.2
- RARQYTTAMIQS — lower, 0.469 ± 0.088
- RARSFINSFSQS — lower, 0.671 ± 0.018
- RASRSPIARPGT — lower, 0.643 ± 0.018
- RAVFLCVWDYSG — within error, 0.597 ± 0.13
- RAVVTGEGESGG — lower, 0.624 ± 0.0092
- RCCGRSRLVVPW — lower, 0.6986 ± 0.0023
- RCEGRRIEQSGK — within error, 0.7037 ± 0.0049
- RCEWRGSCWGGE — within error, 0.653 ± 0.062
- RCGCLRVPTGGG — within error, 0.679 ± 0.075
- RCGGEWTGGVWR — within error, 0.845 ± 0.22
- RCGGGKWGRGAE — lower, 0.69683 ± 0.00067
- RCGPPTAPSLDP — lower, 0.619 ± 0.008
- RCPLSFLRCSMA — lower, 0.586 ± 0.018
- RCPPLWNPLSPL — within error, 0.697 ± 0.034
- RCPPPQPPVRKV — within error, 0.642 ± 0.1
- RCPRSPPQPLWT — within error, 0.731 ± 0.03
- RCSCNKNGFSSN — within error, 0.607 ± 0.2
- RCSLLVVPHSPP — within error, 0.717 ± 0.04
- RCYSFTKIRNNL — within error, 0.718 ± 0.13
- RDAVLSCARRSQ — within error, 0.752 ± 0.17
- RDCSGGRRGLER — lower, 0.601 ± 0.023
- RDDDSKDKRTEI — within error, 0.684 ± 0.065
- RDLLPRWTWIIW — within error, 0.76 ± 0.11
- RDPDTWKLFSLT — within error, 0.687 ± 0.043
- RDPPLPRRLPSL — within error, 0.706 ± 0.058
- RDRMSEGLGDRS — within error, 0.684 ± 0.059
- RDSLEKCLFEVQ — within error, 0.703 ± 0.05
- RDSQSGVVVKGT — within error, 0.726 ± 0.024
- RDTHSEPKPAQY — within error, 0.721 ± 0.0088
- RDVRNRARVKRE — within error, 0.693 ± 0.012
- REEFHGLKGRGG — within error, 0.671 ± 0.046
- REEGGWGEAWRE — within error, 0.726 ± 0.049
- REGALVYWGFLG — lower, 0.652 ± 0.018
- REKQRYEERLRE — lower, 0.636 ± 0.018
- RERTNKKLAKDK — lower, 0.656 ± 0.045
- RESGASLWATMR — within error, 0.734 ± 0.015
- RESRGAGGGEGG — lower, 0.667 ± 0.033
- RESVSPCLVGAV — lower, 0.616 ± 0.056
- REWRLVTCSDCL — lower, 0.668 ± 0.023
- RFAGLRDVGCFL — within error, 0.695 ± 0.034
- RFGRGAVWGLGG — lower, 0.6554 ± 0.0051
- RFINRVVAGDRR — within error, 0.681 ± 0.032
- RFLLSITSSLVL — within error, 0.666 ± 0.043
- RFLVRSFIGWRG — lower, 0.669 ± 0.031
- RFPFGPAPPPTP — within error, 0.744 ± 0.042
- RFSMVVVERYSC — lower, 0.577 ± 0.0062
- RFSVRGARHRCG — lower, 0.693 ± 0.0079
- RFTIPFSVQRVD — within error, 0.721 ± 0.094
- RFYFSLSWSGFC — within error, 0.66 ± 0.077
- RFYLLAEDGSST — within error, 0.703 ± 0.017
- RFYSKDLVHLST — lower, 0.6656 ± 0.0031
- RGALGVVWSGLD — lower, 0.637 ± 0.023
- RGARGGRLVCRE — within error, 0.689 ± 0.043
- RGARGGSRGGGG — within error, 0.677 ± 0.086
- RGARPRTPPSPP — within error, 0.713 ± 0.03
- RGCGGGRVAREC — within error, 0.689 ± 0.051
- RGCGKGPLLSWF — within error, 0.717 ± 0.0093
- RGCRLRCSLPGR — within error, 0.669 ± 0.056
- RGCSAVEKARPC — lower, 0.622 ± 0.0067
- RGGCLPTCPQET — lower, 0.652 ± 0.026
- RGGGEGGKEDSQ — within error, 0.682 ± 0.047
- RGGGGGGDCVGA — within error, 0.727 ± 0.018
- RGGGRDGQTRGV — lower, 0.6165 ± 0.0045
- RGGGVRYGVARR — within error, 0.68 ± 0.059
- RGGRLQVGMEAV — lower, 0.6653 ± 0.0022
- RGGRMGFYLVCI — lower, 0.636 ± 0.028
- RGGSVDCRGNPL — lower, 0.656 ± 0.013
- RGGVFGTCGVGG — lower, 0.653 ± 0.035
- RGGWYLQKAITP — within error, 0.716 ± 0.047
- RGHPRRRPERKA — within error, 0.707 ± 0.09
- RGHTTYCGPALI — within error, 0.697 ± 0.08
- RGIGIQSVAARN — within error, 0.723 ± 0.094
- RGIRDQRKSKDK — lower, 0.663 ± 0.029
- RGIYSIGASGRS — within error, 0.695 ± 0.033
- RGLGCEVGTVEV — higher, 0.768 ± 0.0077
- RGLPVLTFPHTP — within error, 0.71 ± 0.0095
- RGLRVWWGLVGV — lower, 0.633 ± 0.044
- RGPRSSGRKGIR — within error, 0.676 ± 0.042
- RGQDGSEGRGPA — lower, 0.653 ± 0.02
- RGQSGSLSKLLG — within error, 0.72 ± 0.026
- RGRAVGGARKFG — within error, 0.739 ± 0.029
- RGRFVVGAGRED — within error, 0.67 ± 0.077
- RGRGGGGVVGRW — within error, 0.7119 ± 0.0022
- RGRGKVGLWEGS — within error, 0.669 ± 0.067
- RGRMGLGAPGGG — lower, 0.615 ± 0.0085
- RGRPRRGGGVSG — within error, 0.727 ± 0.047
- RGSAPLFVPLSP — within error, 0.7106 ± 0.0069
- RGVLRSETCRLS — within error, 0.7104 ± 0.0069
- RGWGWGRKVSVG — lower, 0.62 ± 0.069
- RGYVGVTQVCKN — within error, 0.695 ± 0.043
- RHDMTSGCVSHS — within error, 0.703 ± 0.039
- RHGLPPAPILSP — lower, 0.661 ± 0.038
- RHILFLLLTPHS — lower, 0.5774 ± 0.0026
- RHLACFWFRPPW — within error, 0.694 ± 0.018
- RHLRSGTRAKVY — lower, 0.678 ± 0.013
- RHPALPGPPGSS — within error, 0.698 ± 0.13
- RIAEYIDTKCPR — within error, 0.708 ± 0.0074
- RICTLCRGGRTP — within error, 0.673 ± 0.03
- RIDRDDHLVPNS — within error, 0.626 ± 0.092
- RIERIYEIKKNR — lower, 0.68086 ± 7.2e-05
- RIIIRNIKKKTE — lower, 0.641 ± 0.023
- RILIRVQSSKLR — within error, 0.671 ± 0.09
- RILNADSREHSS — within error, 0.775 ± 0.12
- RIVASTLKSYLT — lower, 0.68835 ± 0.00068
- RIVQQATHVREH — higher, 0.787 ± 0.011
- RKEKKMKITKRC — within error, 0.691 ± 0.044
- RKEQKGKGKEGG — within error, 0.697 ± 0.024
- RKFLCKSPIECS — lower, 0.574 ± 0.015
- RKHMCSYIRVSR — within error, 0.723 ± 0.085
- RKINQKNNEKNS — lower, 0.648 ± 0.0037
- RKIRRLIVKKGI — lower, 0.67 ± 0.022
- RKKENRYKIEVK — lower, 0.6799 ± 0.0017
- RKKGRKKKQDKN — within error, 0.689 ± 0.023
- RKKIKRKNNKEK — within error, 0.685 ± 0.052
- RKKKKDKSAIKE — within error, 0.722 ± 0.018
- RKKRRKVKRSEK — lower, 0.547 ± 0.034
- RKKTKKEKSEEI — within error, 0.694 ± 0.031
- RKLHDKDDPKTI — within error, 0.681 ± 0.03
- RKMQKKFESKKM — within error, 0.76 ± 0.039
- RKMTSIINKKTV — lower, 0.513 ± 0.0083
- RKNENKKKKNKK — within error, 0.702 ± 0.012
- RKQHKLRKTKRA — within error, 0.657 ± 0.061
- RKQKRGSKKKKQ — within error, 0.721 ± 0.049
- RKQRERGKCGKR — within error, 0.726 ± 0.031
- RKRHDLPPAGPH — within error, 0.713 ± 0.023
- RKRTIVCRPGRV — within error, 0.698 ± 0.021
- RKSKYKGTQRIN — lower, 0.564 ± 0.011
- RKTQKIEQKQKE — within error, 0.756 ± 0.076
- RKVTKLYDNIML — within error, 0.776 ± 0.1
- RKVVLLFGLGEG — lower, 0.669 ± 0.026
- RLAPASAFPHSP — within error, 0.687 ± 0.052
- RLAVGMIRPQGE — lower, 0.637 ± 0.024
- RLDGVTPVRTCL — within error, 0.661 ± 0.054
- RLEDGCGVGAGR — lower, 0.645 ± 0.015
- RLFPSPIYLARF — within error, 0.676 ± 0.12
- RLGECSRKSYHT — within error, 0.692 ± 0.024
- RLGGLLCSPLVD — within error, 0.705 ± 0.097
- RLGPSAPLFVHL — lower, 0.542 ± 0.042
- RLGRATLLLLFF — lower, 0.572 ± 0.12
- RLHSLLFYALGS — lower, 0.668 ± 0.028
- RLLASIRAAQAS — lower, 0.525 ± 0.1
- RLLDLRLYVGKG — lower, 0.618 ± 0.012
- RLLENVSYDWRN — within error, 0.714 ± 0.016
- RLLFPPPMLPPP — within error, 0.735 ± 0.038
- RLLGSSPAVLLY — lower, 0.628 ± 0.062
- RLLLSVLFGFFA — lower, 0.5248 ± 0.0011
- RLLYGICLLGAS — lower, 0.558 ± 0.092
- RLPPPPSPPPPP — within error, 0.688 ± 0.016
- RLPPPSPPVPLL — within error, 0.695 ± 0.0081
- RLPVKQQVLPDK — lower, 0.6783 ± 0.0062
- RLQSSRQMLVPS — lower, 0.63729 ± 0.00036
- RLRESMYPSSEE — within error, 0.717 ± 0.0085
- RLREVVHKYNSI — within error, 0.757 ± 0.086
- RLRRSSSNPHSP — lower, 0.656 ± 0.043
- RLSCCKCRGGAV — lower, 0.6979 ± 0.0042
- RLSFSVPPCLDI — within error, 0.691 ± 0.032
- RLSLGPGLLGSH — within error, 0.74 ± 0.014
